# According to the supplement of paper PMC9112550, “Optimization of the antimicrobial peptide Bac7 by deep mutational scanning” (BMC Biology, 2022):
# Test system: Escherichia coli TOP10
# Test: shrunken log2 fold change of peptide-encoding DNA abundance (4.5 h post-induction vs induction); higher = less antimicrobial activity (less host growth inhibition)
# Conditions: time post-induction: 4.5 h; library: site-saturation at positions 5, 18, 19, 20
# 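Note: peptides expressed intracellularly from a pBAD plasmid library in pooled LB shake-flask culture, induced with 0.3% L-arabinose, DNA abundance read by NGS, three biological replicates, DESeq2 with apeglm shrinkage.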
row,Sequence,shrunken log2 fold change
1,RRIRARPPRLPRPRPRPWTGPRP,0.00192
2,RRIRWRPPRLPRPRPRPDYWPRP,0.122
3,RRIRCRPPRLPRPRPRPGMEPRP,0.183
4,RRIRNRPPRLPRPRPRPVIIPRP,-0.0963
5,RRIRCRPPRLPRPRPRPTIEPRP,-0.276
6,RRIRIRPPRLPRPRPRPMCEPRP,-0.00819
7,RRIRPRPPRLPRPRPRPQMYPRP,-0.338
8,RRIRKRPPRLPRPRPRPVIKPRP,0.0845
9,RRIRTRPPRLPRPRPRPFIVPRP,-0.265
10,RRIRSRPPRLPRPRPRPFLEPRP,-0.248
11,RRIRRRPPRLPRPRPRPVREPRP,0.0195
12,RRIRCRPPRLPRPRPRPHKMPRP,-0.593
13,RRIRKRPPRLPRPRPRPTMSPRP,0.22
14,RRIRARPPRLPRPRPRPWAHPRP,0.0535
15,RRIRMRPPRLPRPRPRPMMWPRP,0.274
16,RRIRIRPPRLPRPRPRPDGEPRP,0.0147
17,RRIRWRPPRLPRPRPRPRYEPRP,0.0756
18,RRIRFRPPRLPRPRPRPLCSPRP,-0.566
19,RRIRQRPPRLPRPRPRPIGLPRP,-0.00141
20,RRIRHRPPRLPRPRPRPTVRPRP,0.165
21,RRIRSRPPRLPRPRPRPRAEPRP,0.492
22,RRIRARPPRLPRPRPRPIVDPRP,0.543
23,RRIRMRPPRLPRPRPRPDRWPRP,0.926
24,RRIRGRPPRLPRPRPRPHNHPRP,-0.27
25,RRIRNRPPRLPRPRPRPREIPRP,0.0831

row,Sequence,shrunken log2 fold change
1,RRIRARPPRLPRPRPRPKAEPRP,0.821
2,RRIRMRPPRLPRPRPRPWGNPRP,-0.00136
3,RRIRKRPPRLPRPRPRPDDRPRP,0.0147
4,RRIRIRPPRLPRPRPRPSMIPRP,-0.458
5,RRIRKRPPRLPRPRPRPYQSPRP,0.000846
6,RRIRPRPPRLPRPRPRPWENPRP,-0.0456
7,RRIRRRPPRLPRPRPRPYEIPRP,-0.39
8,RRIRCRPPRLPRPRPRPVDHPRP,-0.148
9,RRIRARPPRLPRPRPRPWVRPRP,-0.323
10,RRIRSRPPRLPRPRPRPPGAPRP,0.61
11,RRIRVRPPRLPRPRPRPKNMPRP,-0.866
12,RRIRLRPPRLPRPRPRPRIFPRP,-0.263
13,RRIRLRPPRLPRPRPRPDWCPRP,0.0707
14,RRIRYRPPRLPRPRPRPMVQPRP,0.0303
15,RRIRYRPPRLPRPRPRPDRRPRP,-0.177
16,RRIRCRPPRLPRPRPRPFIHPRP,-1.43
17,RRIRLRPPRLPRPRPRPSQWPRP,0.0987
18,RRIRRRPPRLPRPRPRPPSMPRP,0.426
19,RRIRRRPPRLPRPRPRPGAMPRP,0.337
20,RRIRFRPPRLPRPRPRPYLQPRP,-0.527
21,RRIRERPPRLPRPRPRPQNEPRP,-0.581
22,RRIRFRPPRLPRPRPRPVYCPRP,-0.408
23,RRIRMRPPRLPRPRPRPRMYPRP,-0.0804
24,RRIRFRPPRLPRPRPRPANNPRP,-0.917
25,RRIRNRPPRLPRPRPRPNESPRP,-0.121

row,Sequence,shrunken log2 fold change
1,RRIRERPPRLPRPRPRPKHAPRP,-0.0907
2,RRIRPRPPRLPRPRPRPPRTPRP,0.609
3,RRIRYRPPRLPRPRPRPTGTPRP,-0.172
4,RRIRGRPPRLPRPRPRPPLAPRP,1.35
5,RRIRWRPPRLPRPRPRPKEEPRP,1.07
6,RRIRSRPPRLPRPRPRPGQEPRP,-0.0151
7,RRIRARPPRLPRPRPRPHQYPRP,-0.278
8,RRIRRRPPRLPRPRPRPYKPPRP,0.0267
9,RRIRCRPPRLPRPRPRPMAHPRP,-0.00655
10,RRIRPRPPRLPRPRPRPADWPRP,0.434
11,RRIRNRPPRLPRPRPRPGCPPRP,-0.055
12,RRIRQRPPRLPRPRPRPRAYPRP,-0.0505
13,RRIRVRPPRLPRPRPRPYFYPRP,-0.474
14,RRIRKRPPRLPRPRPRPNEGPRP,0.0728
15,RRIRWRPPRLPRPRPRPSLDPRP,-0.00135
16,RRIRCRPPRLPRPRPRPKMEPRP,-0.204
17,RRIRYRPPRLPRPRPRPGSCPRP,-0.308
18,RRIRERPPRLPRPRPRPELRPRP,0.0526
19,RRIRQRPPRLPRPRPRPEIAPRP,-0.151
20,RRIRDRPPRLPRPRPRPNAGPRP,0.149
21,RRIRNRPPRLPRPRPRPMIEPRP,0.00437
22,RRIRTRPPRLPRPRPRPNNLPRP,-0.252
23,RRIRWRPPRLPRPRPRPQWSPRP,-0.0983
24,RRIRERPPRLPRPRPRPRKIPRP,0.0442
25,RRIRTRPPRLPRPRPRPCHCPRP,-1.43

row,Sequence,shrunken log2 fold change
1,RRIRYRPPRLPRPRPRPEVCPRP,-0.0334
2,RRIRKRPPRLPRPRPRPYKWPRP,0.000411
3,RRIRSRPPRLPRPRPRPSNKPRP,-0.413
4,RRIRARPPRLPRPRPRPMYKPRP,-0.189
5,RRIRCRPPRLPRPRPRPLIQPRP,-0.457
6,RRIRGRPPRLPRPRPRPSILPRP,1.03
7,RRIRYRPPRLPRPRPRPFVYPRP,-1.51
8,RRIRIRPPRLPRPRPRPCIKPRP,-0.185
9,RRIRWRPPRLPRPRPRPGDDPRP,0.351
10,RRIRGRPPRLPRPRPRPCMKPRP,0.507
11,RRIRDRPPRLPRPRPRPVQDPRP,0.0144
12,RRIRQRPPRLPRPRPRPEGEPRP,0.0215
13,RRIRIRPPRLPRPRPRPAMSPRP,-0.0178
14,RRIRTRPPRLPRPRPRPATHPRP,-0.152
15,RRIRHRPPRLPRPRPRPQDGPRP,-0.0342
16,RRIRSRPPRLPRPRPRPKRFPRP,0.0952
17,RRIRFRPPRLPRPRPRPGCIPRP,-0.241
18,RRIRERPPRLPRPRPRPRTKPRP,0.175
19,RRIRTRPPRLPRPRPRPNIYPRP,0.0647
20,RRIRNRPPRLPRPRPRPHPYPRP,-0.654
21,RRIRRRPPRLPRPRPRPCYMPRP,-0.191
22,RRIRERPPRLPRPRPRPYFCPRP,-0.765
23,RRIRWRPPRLPRPRPRPSINPRP,-0.0638
24,RRIRCRPPRLPRPRPRPHMGPRP,-0.29
25,RRIRLRPPRLPRPRPRPWLMPRP,-0.102

row,Sequence,shrunken log2 fold change
1,RRIRQRPPRLPRPRPRPWRNPRP,-0.00208
2,RRIRYRPPRLPRPRPRPTPPPRP,0.421
3,RRIRQRPPRLPRPRPRPKCYPRP,-0.234
4,RRIRQRPPRLPRPRPRPSQWPRP,-0.02
5,RRIRARPPRLPRPRPRPPACPRP,0.817
6,RRIRDRPPRLPRPRPRPDMKPRP,-0.00136
7,RRIRTRPPRLPRPRPRPAWRPRP,0.594
8,RRIRNRPPRLPRPRPRPETNPRP,0.196
9,RRIRSRPPRLPRPRPRPRPMPRP,0.498
10,RRIRVRPPRLPRPRPRPPYKPRP,-0.371
11,RRIRNRPPRLPRPRPRPSFAPRP,0.00213
12,RRIRLRPPRLPRPRPRPRFCPRP,-0.0895
13,RRIRHRPPRLPRPRPRPHFFPRP,-0.0737
14,RRIRVRPPRLPRPRPRPIKAPRP,0.0466
15,RRIRPRPPRLPRPRPRPHIVPRP,-0.481
16,RRIRCRPPRLPRPRPRPIGCPRP,-0.00449
17,RRIRNRPPRLPRPRPRPFYGPRP,-0.107
18,RRIRFRPPRLPRPRPRPMKQPRP,-0.0442
19,RRIRYRPPRLPRPRPRPTQTPRP,0.0249
20,RRIRHRPPRLPRPRPRPTICPRP,-0.41
21,RRIRGRPPRLPRPRPRPTECPRP,0.267
22,RRIRVRPPRLPRPRPRPKSEPRP,0.0185
23,RRIRQRPPRLPRPRPRPGVKPRP,0.0204
24,RRIRLRPPRLPRPRPRPCAHPRP,-0.417
25,RRIRTRPPRLPRPRPRPESHPRP,-0.164

row,Sequence,shrunken log2 fold change
1,RRIRSRPPRLPRPRPRPWACPRP,0.0189
2,RRIRYRPPRLPRPRPRPQINPRP,-0.669
3,RRIRYRPPRLPRPRPRPHHPPRP,-0.38
4,RRIRMRPPRLPRPRPRPHQSPRP,-0.318
5,RRIRCRPPRLPRPRPRPGQYPRP,-0.479
6,RRIRARPPRLPRPRPRPYIHPRP,-0.681
7,RRIRTRPPRLPRPRPRPITSPRP,0.0903
8,RRIRMRPPRLPRPRPRPEVAPRP,3.75
9,RRIRVRPPRLPRPRPRPERCPRP,0.187
10,RRIRCRPPRLPRPRPRPQNFPRP,-0.43
11,RRIRIRPPRLPRPRPRPPHMPRP,-0.416
12,RRIRFRPPRLPRPRPRPADGPRP,0.183
13,RRIRWRPPRLPRPRPRPTIYPRP,0.113
14,RRIRMRPPRLPRPRPRPYQVPRP,-0.393
15,RRIRFRPPRLPRPRPRPVTMPRP,-0.295
16,RRIRYRPPRLPRPRPRPQNNPRP,-0.86
17,RRIRQRPPRLPRPRPRPYNMPRP,-0.316
18,RRIRFRPPRLPRPRPRPILDPRP,-0.0134
19,RRIRIRPPRLPRPRPRPEEMPRP,-0.416
20,RRIRYRPPRLPRPRPRPRPYPRP,-0.259
21,RRIRRRPPRLPRPRPRPFKCPRP,-0.135
22,RRIRVRPPRLPRPRPRPYEEPRP,-0.128
23,RRIRIRPPRLPRPRPRPNCQPRP,-0.367
24,RRIRSRPPRLPRPRPRPWIEPRP,-0.0567
25,RRIRPRPPRLPRPRPRPSEFPRP,-0.0966
